Values of other authors as cited in publication PMC6983177.

What was measured:
pCDC25c (Homo sapiens) = pCDC25c (Homo sapiens) (UniProt P30307)
[1] = target: RNA polymerase II CTD phosphopeptide (Homo sapiens) (UniProt P24928); assay: isothermal titration calorimetry

UniProt P30307, sequence (P30307 2-473): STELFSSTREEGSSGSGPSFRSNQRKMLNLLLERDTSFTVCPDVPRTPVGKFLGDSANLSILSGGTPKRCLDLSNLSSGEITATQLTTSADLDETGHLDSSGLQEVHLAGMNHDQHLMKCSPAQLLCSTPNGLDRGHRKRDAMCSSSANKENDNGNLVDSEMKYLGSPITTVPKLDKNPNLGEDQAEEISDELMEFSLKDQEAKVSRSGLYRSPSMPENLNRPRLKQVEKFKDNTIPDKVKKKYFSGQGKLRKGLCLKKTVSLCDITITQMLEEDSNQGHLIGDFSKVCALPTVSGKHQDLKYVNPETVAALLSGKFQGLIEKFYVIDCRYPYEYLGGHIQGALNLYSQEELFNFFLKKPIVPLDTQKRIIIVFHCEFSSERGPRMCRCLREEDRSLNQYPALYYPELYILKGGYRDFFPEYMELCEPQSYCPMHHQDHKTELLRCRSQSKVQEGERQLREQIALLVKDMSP

Kd (pCDC25c (Homo sapiens)): 8 µM
Kd [1]: 35 µM
Substance: Pin1 WW (from UniProt Q13526)
